In-gel kinase activity data for one substance are collected here from patent publication US20120047604.

This series has as its system casein.

As to GST-WKS1_Kinase fusion protein, the in-gel kinase activity result is “The WKS1 Ser/Thr kinase domain (pfam00069) was confirmed to have kinase activity (FIG. 17)”.
